Results taken from article PMC7955116, “The FlgN chaperone activates the Na^+-driven engine of the Salmonella flagellar protein export apparatus” (Communications Biology, 2021).

B1: His-FlgN (natural protein)
chain: MTRLSEILDQMTTVLNDLKTVMDAEQQQLSVGQINGSQLQRITEEKSSLLATLDYLEQQRRLEQNAQRSANDDIAERWQAITEKTQHLRDLNQHNGWLLEGQIERNQQALEVLKPHQEPTLYGADGQTSVSHRGGKKISI
notes: FlgN of Salmonella enterica serovar Typhimurium; source: E. coli BL21 (DE3) Star, in lysate or purified (Ni-NTA)

Experiments:
GST-FliJ = target: T1, GST-FliJ (Salmonella enterica serovar Typhimurium, UniProt P0A1K1 1-147); assay: SPR; GST-FliJ or GST-FliJ(Δ13–24) captured through immobilised anti-GST antibody on a CM5 chip; His-FlgN flowed over at 20 µl/min; 10 mM HEPES pH 7.4, 0.15 M NaCl, 3 mM EDTA, 0.005% Surfactant P20; 25 °C; steady-state analysis, 1 to 1 binding model; conditions: both partners purified
T1 construct: FliJ, flagellar export protein of Salmonella enterica serovar Typhimurium; also called GST-J; source: Salmonella MMHI0117, over-produced, in lysate

His-FlgN = target: B1; assay: as above; conditions: both partners purified

Binder	Kd (GST-FliJ)	Kd (His-FlgN)
B1	27.4 ± 13 µM	–
GST-FliJ(Δ13–24) (natural protein, FliJ of Salmonella enterica serovar Typhimurium with residues 13-24 deleted; also called GST-J(Δ13–24)) MAQHGALETLKDLGEMRRGCQQAEEQLKMLIDYQNEYRSNLNTDMGNGIASNRWINYQQFIQTLEKAIEQHRLQLTQWTQKVDLALKSWREKKQRLQAWQTLQDRQTAAALLAENRMDQKKMDEFAQRAAMRKPE	–	7.74 ± 0.12 µM
